The results in this text go back to the supplement of paper PMC12764529.

Data set [1] in a line: folding stability dG unfold from chymotrypsin proteolysis; higher = more stable. An outline of the steps: (§1)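 K50 was inferred by Bayesian fitting of sequencing counts obtained after protease digestion of designed mini-proteins. Unfolding free energy was derived by comparison with a sequence-predicted unfolded-state K50 and a shared folded-state K50, for each protease or both combined. The mini-proteins were under 80 residues, had no cysteine, were carried in a PA-tagged cDNA display construct, and were kept only if AlphaFold2 dimer inter-PAE exceeded 15.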

Data set [2] is described as follows: folding stability dG unfold (combined trypsin and chymotrypsin); higher = more stable. An outline of the steps: as §1
Data set [3] in a line: folding stability dG unfold from trypsin proteolysis; higher = more stable. The essentials: as §1

± gives the half width of the 95% confidence interval.

Turning to “SAGGSAGGSAGMVLPVTKVYRDGDTVYLYFDGLGLIAEIRIDDDKITLPSVYRVHPDEDLSAGGSAGGSAGG [r17_30_TrMRF]”, the “folding stability dG unfold” value was found to be 0.438 ± 0.11 kcal/mol in data set [1], 0.691 ± 0.095 kcal/mol in data set [2] and 0.835 ± 0.038 kcal/mol in data set [3].

In the case of “SAGGSAGGSAGMVLVFDKKTGELYLYDKNGKLVAKFKVEGAEEVVVLVFDPDTNELKLVPSAGGSAGGSAGG [r17_413_TrROS_Hall]”, the “folding stability dG unfold” value is 3.68 ± 0.037 kcal/mol in data set [1], 3.4 ± 0.065 kcal/mol in data set [2] and 2.49 ± 0.049 kcal/mol in data set [3].

On to “SAGGSAGGSAGMVNTTLTTAPDGTRIVTTTFPENPDLVLRTTYAPDGSVLETELVPSSQLSAGGSAGGSAGG [r11_909_JUSTAS]”, for which the “folding stability dG unfold” value is 1.04 ± 0.023 kcal/mol in data set [1], 1.52 ± 0.026 kcal/mol in data set [2] and 1.98 ± 0.045 kcal/mol in data set [3].

As to “SAGGSAGGSAGMVVETSKNPPTSDTVVTTLVPSPNSTTVTTTIVSPDPNTIKETTTTPTPSAGGSAGGSAGG [r11_100_JUSTAS]”, the “folding stability dG unfold” value is 1.23 ± 0.019 kcal/mol in data set [1], 1.8 ± 0.034 kcal/mol in data set [2] and 2.41 ± 0.064 kcal/mol in data set [3].

Take “SAGGSAGGSAGMVVKVKEHPITITKLPDGSWRLTHPASGKVILLPGVDEATAKAIAEELTSAGGSAGGSAGG [r11_1085_JUSTAS]”: the “folding stability dG unfold” value turned out to be 1.76 ± 0.027 kcal/mol in data set [1], 1.58 ± 0.054 kcal/mol in data set [2] and 1.26 ± 0.015 kcal/mol in data set [3].

Regarding “SAGGSAGGSAGMVVTINDPKKAKKIDENSVITIPDGKKYKVVKVEVDEKNGYWTLTIEPLSAGGSAGGSAGG [r11_316_JUSTAS]”, the figures for the “folding stability dG unfold” value in data set [1], in data set [2] and in data set [3] were 2.55 ± 0.051 kcal/mol, 2.18 ± 0.15 kcal/mol and 1.09 ± 0.055 kcal/mol, respectively.

Consider “SAGGSAGGSAGMYRVEIEIEMSKEQLEALKKNKNLKPGQKIDLKVKIKIEPVKLDKNGKLSAGGSAGGSAGG [r17_194_TrROS_Hall]”, for which the “folding stability dG unfold” value in data set [1] worked out at 2.43 ± 0.036 kcal/mol; in data set [2] it was 2.32 ± 0.13 kcal/mol; in data set [3] it was 1.57 ± 0.051 kcal/mol.

For the sequence “SAGGSAGGSAGNIMILNKDGKIIAEIKIEEKYEIDKDGKIKKTKKIEIKIVPVPPGEKIKSAGGSAGGSAGG [r17_480_TrROS_Hall]”, the entries for the “folding stability dG unfold” value in data set [1], in data set [2] and in data set [3] were 1.94 ± 0.11 kcal/mol, 1.25 ± 0.29 kcal/mol and 0.867 ± 0.056 kcal/mol, respectively.

“SAGGSAGGSAGNKKAEEIKKILEEKGFEVVSVKVYKPKGNKPVVKIEVKAKNGKKFTILASAGGSAGGSAGG [r11_780_TrMRF]”: the “folding stability dG unfold” value in data set [1] came to 3.28 ± 0.039 kcal/mol; in data set [2], 3.22 ± 0.2 kcal/mol; in data set [3] it was 2.96 ± 0.2 kcal/mol.

On to “SAGGSAGGSAGNKYLIKVKKKNGNKSEELEIEVEDNPEIAEKIAEELKKKGNIVSVEIKKASAGGSAGGSAG [r3_310_TrMRF]”, for which the “folding stability dG unfold” value in data set [1] turned out to be 0.403 ± 0.21 kcal/mol; in data set [2], 0.66 ± 0.23 kcal/mol; in data set [3], 0.761 ± 0.1 kcal/mol.

For the sequence “SAGGSAGGSAGNTIEIEINGKPIYVEFEPLPEGMVKVKIYFPDGKKEEITLPANDPIKIGSAGGSAGGSAGG [r11_525_TrROS]”, the figures for the “folding stability dG unfold” value in data set [1], in data set [2] and in data set [3] were 1.6 ± 0.045 kcal/mol, 1.58 ± 0.13 kcal/mol and 1.53 ± 0.068 kcal/mol, respectively.

As for “SAGGSAGGSAGNVTLTRVEVLEGEDDRPLIKATFSFEPGPQVLVFEGDNPDDIEIDVDVGSAGGSAGGSAGG [r17_64_TrMRF]”, the “folding stability dG unfold” value in data set [1] was 0.0818 ± 0.12 kcal/mol; in data set [2], -0.0491 ± 0.13 kcal/mol; in data set [3], -0.45 ± 0.096 kcal/mol.

As for “SAGGSAGGSAGNWIIRIRWPGKSIMFVLPEGMNVDEIATNIQDEFNYPIDIEVIPPGQPISAGGSAGGSAGG [r11_805_TrROS]”, the “folding stability dG unfold” value in data set [1] was 2.65 ± 0.062 kcal/mol; in data set [2] it was 2.5 ± 0.15 kcal/mol; in data set [3] it was 2.15 ± 0.071 kcal/mol.

For the sequence “SAGGSAGGSAGNWRWIMIPIKVPPGLEAGEEIEIKIPNGVEVWYHYNEPGTIWMMIRVPDSAGGSAGGSAGG [r11_362_TrROS]”, the “folding stability dG unfold” value amounted to 2.96 ± 0.037 kcal/mol in data set [1], 2.88 ± 0.085 kcal/mol in data set [2] and 2.69 ± 0.069 kcal/mol in data set [3].

For the sequence “SAGGSAGGSAGPEKMRIEDIEHERNPEDGRHTVKIKIPNGPDITFQFTDPEDLDDFKLEVSAGGSAGGSAGG [r11_711_TrROS]”, the “folding stability dG unfold” value in data set [1] is 0.334 ± 0.075 kcal/mol; in data set [2] it was 0.0382 ± 0.22 kcal/mol; in data set [3], -0.274 ± 0.079 kcal/mol.

“SAGGSAGGSAGPEKTVTLRVKITNADGQEQTLELTAETEEEALAALRALLPPGAKVEIEPSAGGSAGGSAGG [r11_671_TrROS_Hall]”: the “folding stability dG unfold” value in data set [1] turned out to be 3.66 ± 0.07 kcal/mol; in data set [2], 3.35 ± 0.087 kcal/mol; in data set [3], 1.99 ± 0.067 kcal/mol.

As for “SAGGSAGGSAGPIKITSVEYDPNSGTIIARFPDGVVIRIKMNPDGNFKIDEIYPIKPGDLSAGGSAGGSAGG [r17_61_TrROS]”, the figures for the “folding stability dG unfold” value in data set [1], in data set [2] and in data set [3] were 1.57 ± 0.08 kcal/mol, 2.02 ± 0.14 kcal/mol and 2.37 ± 0.088 kcal/mol, respectively.

Take “SAGGSAGGSAGPKIEIEKLPGPYYLLKIYLPDENGNPIEALVVATSPEEAVEKLKELLKSSAGGSAGGSAGG [r11_819_TrMRF]”: the “folding stability dG unfold” value in data set [1] worked out at 3.15 ± 0.043 kcal/mol; in data set [2], 3.18 ± 0.098 kcal/mol; in data set [3], 3.21 ± 0.14 kcal/mol.

Turning to “SAGGSAGGSAGPMYIITHTSPNEPIEFIFPPDDAEEFLKKLKLPPNMNIKVEPIDPDDMKSAGGSAGGSAGG [r17_395_TrROS]”, the “folding stability dG unfold” value in data set [1] amounted to 0.715 ± 0.21 kcal/mol; in data set [2], 0.367 ± 0.18 kcal/mol; in data set [3] it was 0.0355 ± 0.07 kcal/mol.

On to “SAGGSAGGSAGPNMVPIGKLTIEIRNPDNGNPLRIRIDLYVVPAPDGWMIALRILDIEPPSAGGSAGGSAGG [r11_113_TrROS]”, for which the “folding stability dG unfold” value in data set [1] was found to be 4.15 ± 0.21 kcal/mol; in data set [2], 3.7 ± 0.26 kcal/mol; in data set [3], 2.45 ± 0.13 kcal/mol.

Regarding “SAGGSAGGSAGPPDFQIYVDIETQRNPGNGRYYVTMKIYIGNKPIVEITIPAGEPLKIKFSAGGSAGGSAGG [r17_281_TrROS]”, the “folding stability dG unfold” value in data set [1] was 3.9 ± 0.045 kcal/mol; in data set [2], 3.4 ± 0.14 kcal/mol; in data set [3] it was 2.66 ± 0.12 kcal/mol.

As to “SAGGSAGGSAGPPDIEVNYYRYEGYYRVNISFPNNRPIEIMMKGPGMPAEDFVKKLLDQLSAGGSAGGSAGG [r11_313_TrROS]”, the “folding stability dG unfold” value is 2.35 ± 0.059 kcal/mol in data set [1], 2.1 ± 0.14 kcal/mol in data set [2] and 1.84 ± 0.1 kcal/mol in data set [3].

Take “SAGGSAGGSAGPPKPIWFRVKEVEVNPDNGTLEIKFENGQTITIPPENIENLPPGDWIRISAGGSAGGSAGG [r11_124_TrROS]”: the “folding stability dG unfold” value in data set [1] came out at 1.53 ± 0.061 kcal/mol; in data set [2], 1.33 ± 0.058 kcal/mol; in data set [3], 0.838 ± 0.029 kcal/mol.

Regarding “SAGGSAGGSAGPPNIKMEPETRTYVLPGGWAIRVSIMKIKPPDGKPLIMAMEEIIPPDDPSAGGSAGGSAGG [r17_312_TrROS]”, the “folding stability dG unfold” value in data set [1] is 1.27 ± 0.23 kcal/mol; in data set [2], 1.27 ± 0.31 kcal/mol; in data set [3], 0.958 ± 0.1 kcal/mol.

Regarding “SAGGSAGGSAGPPPFKLKIDEMEMADDMFRIKLTIEDPNGEVTVDYWIGNQPFKLRIKPDSAGGSAGGSAGG [r17_45_TrROS]”, the “folding stability dG unfold” value worked out at 2.39 ± 0.17 kcal/mol in data set [1], 2.12 ± 0.17 kcal/mol in data set [2] and 1.53 ± 0.039 kcal/mol in data set [3].

“SAGGSAGGSAGPTYKIKIYFEDTGVEAEVEINEDGSLTITVPKELLPPGAKVKVEIVKVPSAGGSAGGSAGG [r17_392_TrROS_Hall]”: the “folding stability dG unfold” value in data set [1] was determined as 1.66 ± 0.098 kcal/mol; in data set [2], 1.57 ± 0.26 kcal/mol; in data set [3], 1.28 ± 0.057 kcal/mol.
